Results reported in a protein production outcome set (Wang et al. 2014).

Assay: label from the status in PepcDB records

| Sequence | protein production |
| --- | --- |
| MGNCCGTAGSLAQNDNKPKKGRKKQNPFSIDYGLHHGGGDGGGRPLKLIVLNDPTGREIESKYTLGRELGRGEFGVTYLCTDKETDDVFACKSILKKKLRTAVDIEDVRREVEIMRHMPEHPNVVTLKETYEDEHAVHLVMELCEGGELFDRIVARGHYTERAAAAVTKTIMEVVQVCHKHGVMHRDLKPENFLFGNKKETAPLKAIDFGLSVFFKPGERFNEIVGSPYYMAPEVLKRNYGPEVDIWSAGVILYILLCGVPPFWAETEQGVAQAIIRSVLDFRRDPWPKVSENAKDLIRKMLDPDQKRRLTAQQVLDHPWLQNAKTAPNVSLGETVRARLKQFTVMNKLKKRALRVIAEHLSDEEASGIREGFQIMDTSQRGKINIDELKIGLQKLGHAIPQDDLQILMDAGDIDRDGYLDCDEFIAISVHLRKMGNDEHLKKAFAFFDQNNNGYIEIEELREALSDELGTSEEVVDAIIRDVDTDKDGRISYEEFVTMMKTGTDWRKASRQYSRERFNSISLKLMQDASLQSCVFDILANERAEYGDQERKTVLAFGCV | failed |
| MGNIIRALVAFIPTDRCQSYVVGDLREMPLDRMVDLSGSQLRRFPLHVCSFTELVKLYLSDNHLHSLPPDLAQLQNLQILALDFNNFKALPQAVCTLKQLCILYLGNNKLCDLPDELSLLQNLRTLWLESNCLTRLPDVVCELSLLKTLHAGSNALRLLPGQLRRLRELRTIWLSGNQLADFPSVLLHMPFLEVIDVDRNSIRYFPSLAHLTNLKLVIYDHNPCRNAPKVGKGVRRVGRWAEETPEPDRRKTRRSALAKEENQEPPPLLPPSS | failed |
| MGNILKDKSMAFAIQIVNLHKYPNKRKAYSLSDQILISGTAIGVLQKETECAESNADFIHNIASPQKNVTKPFSGLNCYLKQNIYPKQNIQACLQTQMNLEHHHHHH | failed |
| MGNIYQITVEEKAEHQRTLSFEFSLHDDLFKLLEKVDGKMDMTPEQTQAFMVGLKLFGEVMMQQRKHPLFKEFSAPFRAFMMNLKKQ | not failed |
| MGNLSKPVGIGAGGLDLLMPMHLRLDPLGEIAGCGPTLRKLFAESPVRRPFFDLFKVRRPTGIETPAALAARTGVRLHLTTLDGGVSLRGVATPKHEGRGLLLNLSFGISVIEAVRRHGLTDGDFAPTDLAVELLYLVEAKTAVAEELRRLNGRLERARRLAEEEALTDELTGLRNRRAIDQALEAVIATRRPFGLMHLDLDFFKEVNDSFGHAAGDEVLRAVAQVLSRETRTGDTVARIGGDEFMMLFPGLSDPAPMKRLAARVIADVARPIPFGGGVCRVSASIGMTLSVRYDRPDLARMLADADEALYAAKRAGRGTAVLSEGMRPERRRDP | failed |
| MGNYKFRISEMLPNAWFHKLKDVTKHSKPKNKASSSSSNTCSKKKPSSDSLPQHSYFSNSLVANNPPHHNSPRNSLHTKKMSKRKTLYKPSLKPLTPPPLLVSASFNKSKINDQDSSYSLFPAIETSPESFVYSFYEEDDDDEFVEFSNFKINTKNKAFTKQKVKVIDSVEKACTASKPIKKPQKSHLSVKISRDEDDNEYKAEKKYQRQVSSGRKPSAGINLKRVNSPRIQLSGTRRSTSRRSESKQDVLESFAVMKRSVDPKKDFRESMIEMIEENNIRASKDLEDLLACYLTLNPKEYHDLIIHVFEQIWLQLTKTK | failed |
| MGNYLLRKLSCLGENQKKPKKGNPDEERKRQEMTTFERKLQDQDKKSQEVSSTSNQENENGSGSEEVCYTVINHIPHQRSSLSSNDDGYENIDSLTRKVRQFRERSETEYALLRTSVSRPCSCTHEHDYEVVFPH | not failed |
| MGPAVKKASKGILSDVLKCLTNNIKHMREFTLAVVDKMVAGLSDFVDATHLLKPASNRSD | failed |
| MGPKVSVITVCYNAEEFIENAIYSVLNQSYENIEYIIIDGASKDNTVSIINKYRSVMACFISEPDKGMYEAMNKGIKAATGDILYFLNSDDVFYDEYVVENVVKVFQKNNNVELIYGPIIIRDPTTNESFIKPHDYITKSYFIYNSICQQGIFYKASVFNKCGQFNDTYKIVGDYEWELRAFYKYNIKRKYYEGIIAIFRDGGMCNCDKFSDLHAKERTKVIKEYFNIFVIYKYKFLLFCRSAIKRLELEHHHHHH | failed |
| MGQAPDRPHLETFLARLRAGAKILELGCGGGQDSEYMLSAGFDVHPTDGTPDIAKAAQARLGIPVRTLLFENIEDAALYDAVWANACLLHVPRLALPGIIGRIHTALKPGGVFYASFKAGEVEGRDTFGRYYNYPSKAWLEETYGQFAWTEVEIEARQGSGYDKLPTDWLHVTATKALEHHHHHH | failed |
| MGQMFGVACIDEQSGIVGQAWNNNSVRYISIDEDAVITIQSGPVVGKVAVSNDKTLAYGATINGANTVYVYKKSQAWVPSRLSDISSGTDVWAVALNGDNQWLYYVTANGRLGRIEVDNPTHNEILFEHNDFSGGPFAYIAYSAFEDCFYVTTDKNKILKVWVKEDGTHAYEQINQNNTGTTDGFLADEAKFQYLRGLTIDEDGNIFVCQGDNSHVIRKIAYDENMEKRYVTTVLGTSTVHGTDDGSPDIALFNGPQDISYDGNGGYWIAMRYEPALRKYSIELEHHHHHH | failed |
| MGQPVASKGRGATPTVGKAMLNKYARAFFTRVLTPFAAFLIRRGVSPDTVTLLGTAGVVAGALVFYPMGEFFWGTVVITLFVFSDLVDGNMARQLGRSSRWGAFLDSTLDRVADGAIFGGLALWYAGGGDDIVLCAVSIFCLASGQVVSYTKARGEAIGLPVAVNGLVERAERLVVSLVAAGFAGLHKFGVPGIQYLLPIALWIVAVGSLVTLVQRVVTVRREAAEADAAAQESQGTEAAK | failed |
| MGRCSHGLREGRRGEPVRDPTPLDRAGCSVLPGGAKLYYSMAFKMHVPPRGSGHIEEPRRLDKALKALKKSRLLDMLEKVDPGFQSLRVFETVHDPLYIKGILAELEAALDSYFIDSDTYISPGTQAALEALAASVEQASEHVAEGGKALVLGRPPGHHAGVAGPGLGAPSLGACLVNAAASLAYRLAGRGLKVLILDFDANHGNGTQEILQALPMGDRLFHLDMHQDWRKSFPWTGEPGVTGDGTALNIVLPEGSGDDIVLALIEGLEPLVNESEPDAVVVSMGFDGYSGDSPLTLTKLTSHTFHALGRLASRYPVAAVLETGFGRGLELGLPAFIAGLLGLGNPVQEEAIKSDEEVWREFLETNKEVVEHG | failed |
| MGRFHQYQPRQLSVASVNHADDNDRLPAISLVTPSFNQASFVEKTLESVLGQNYPKLQYIVQDGLSTDGTREILGRYATRNVDIRIETDGGQTDALNKGFAHADGEIMGYLNSDDLLLPGTLCLVGRYFRDNPSVDVIYGNRLIVDEAGREVGRWVLPEHDSEILTFIDYVPQETMFWRRRIWERVGGRFDTDFHFAMDWELLLRFIHAGAVFRHLPGLFGAFRVHGQQKSQAEFLVRGIGEMNGLRLRYGGRNISFVRRIALHWAYLSQHRLADAAFEASLRKNG | failed |
| MGRGYEVISTEVCPLCKGKGKSKSVDFMKISEKDIDSFLKNGAVCEKCKGKGSIEITRPCEACEGLGKIYTCKVCGARIHNPEDAEDEICSTCARSQHVYALDESCDLEHHHHHH | not failed |
| MGRKIVFFDIDGTLLDEQKQLPLSTIEAVRRLKQSGVYVAIATGRAPFMFEHVRKQLGIDSFVSFNGQYVVFEGNVLYKQPLRREKVRALTEEAHKNGHPLVFMDAEKMRASIGDHPHIHVSMASLKFAHPPVDPLYYENKDIYQALLFCRAEEEEPYVRNYPEFRFVRWHDVSTDVLPAGGSKAEGIRMMIEKLGIDKKDVYAFGDGLNDIEMLSFVGTGVAMGNAHEEVKRVADFVTKPVDKEGIWYGLKQLQLIR | not failed |
| MGRKVRAYFVHLFTASGVAFAFLAMREVVRVDLDPRWVFGWLTLAVFIDAADGPLARLWDVKLYASRILGKTIDLIVDYLTFTFIPLTLVWRMDWLPGWDGLWVTLAMVASLLGFANTAAKQSQEGFFLGFPSYWNVVAYYVGLLAVEYGAVGAYVSLGSVLTLTVLTLVPVRFVYPNAAPTPWRAIVTVGGVAWLGLLLALLPTFPELPAWGGDWVLGVSFVYPAFYFGLSGWLDWTSRQS | failed |
| MGRLFVVNLEGKIYSCKHCKTHLATYEDIISKSFHCKHGKAYLFNKVANVSIGETEERLMMTGKHTVADIFCVSCGSIVGWKYETAHEKNQKYKEGKSVLERFKISGPDGSNYWVSSHGRHIGGSDADDA | failed |
| MGRLGWVDPESFMQRNHELMDAYSAGKLAMEEFMAFSLEPMAGRTPEEVDHLVGPWVEDVIEPIIYSDACKCIAQHRAKGDRILVISASGVHLVKPIAERLGIDEVLGIELDVQHGVYSGATVGVLTYREGKITRLMEWLDAEGENLEGASFYSDSRNDLPLLLKVDHPNVVNPDPVLLEHAQQAGWPVHTWV | failed |
| MGRRKKILFTDYFINLVDTYKLNQVGERTYNKYCLTHRHLKKICPDLYLQDMNANDYQQILNEFGKTHEKATTVDFHHQLAWALKRAYNVDGLTDRDVTYDAQIPKGVVTNKKKPKFMELDDMKKLVVTLKYLNSSYANFFLILLKTGLRFAELLGITLEDIDFEKKTISINKTLDYKKGAYDENFSRRFKSTKNKYSIRTIPVDDAVIYMFWRNAKGADKDESIFGSIKGFQYNSSLNNKLEQTCKYAGVPVITLHGLRHEHATYLVSQGIDSRAVAERLGHVDDSVTREVYIHRLETERVRDNQQIMRSVSKI | failed |
| MGRRLVPLTLDNLPDLPKRCRACVFWELDPVSGEAAVKAGTSALEKEAWISAVLLDWGSCGRVVYVDDVPVGFVLYAPPAYVPRSTAFPTSPVSPDAVQLMTAFIMPGYQGQGLGRVMVQTVAKDLLRRGFKAIEAFGDAHWK | failed |
| MGRVKLELKRIEKSTNRQITFSKRKKGLIKKAYELSTLCDIDLALLMFSPSDRLCLFSGQTRIEDVLARYINLPDQERENAIVFPDQSKRQGIQNKEYLLRTLEKLKIEDDMALQINEPRFIPH | failed |
| MGRVLDRIEVVAEEIRGQAVQSEADCRLTDAAAGLLRDSGAIRLLQPRLYGGYEVHPREFAETVMGVAALDGASGWVTGIVGVHPWELAFADPQVQEEIWGEDNDTWMASPYAPMGVATPVDGGYVLKGRWSFSSGTDHCQWAFLGAMVGDGEGGIATPSSLHVILPRTDYQIVEDTWDVIGLRGTGSKDLIVDGAFVPGYRTLNAAKVMDGRAQKEAGRPEPLFNMPYSCMFPLGITAAVIGITEGALACHIAVQKDRVAITGQKIKEDPYVLSAIGESAAEINASRVSLIETADRFYDKVDAGKEITFEERAIGRRTQIAAAWRAVRAADEIFARAGGGALHYKTPMQRFWRDAHAGLAHAVHVPGPTNHASALTQLGGEPQGMMRAMI | not failed |
| MGSIDRYIFRTTLVSFAVVMGSLTGVIWITQALRGIDLMTSQGQTIITFLGLTGLAVPVLVLVIAPIALMIAVAHTLNRLATDSEIIVMNAAGLSPIRLFRPFFYATMVVAALVIIIGAYIAPDGLRRIARWDSEITADVLANVLQPGRFAQLEQGLTIRVRERQPGGLLVGVFIDDARAPNERVSIIADHGTVVKNDKGSFLVLEDGHLERFQTGKQEPALVAFSRYAFDMSKFSRARDVAYGIRERYLWELLWPAENDPLLARLPTEFRSEMHDRLLAPIYPFFFAAVAFAFLGLARTTRQSRNFSMAGAVLVAFVVRLAGFALSVIANKTPYVAGLQYLLLFVATGTCLWLINRNVVIEPPARVTEALNAFNASIARLIRRPVPA | failed |
| MGSKNESTASKASGTASEKKKIEYLDKTYEVTVPTDKIAITGSVESMEDAKLLDVHPQGAISFSGKFPDMFKDITDKAEPTGEKMEPNIEKILEMKPDVILASTKFPEKTLQKISTAGTTIPVSHISSNWKENMMLLAQLTGKEKKAKKIIADYEQDLKEIKTKINDKAKDSKALVIRIRQGNIYIYPEQVYFNSTLYGDLGLKAPNEVKAAKAQELSSLEKLSEMNPDHIFVQFSDDENADKPDALKDLEKNPIWKSLKAVKEDHVYVNSVDPLAQGGTAWSKVRFLKAAAEKLTQNLEHHHHHH | not failed |
